# Results taken from publication PMC6736755.
# Molecular target: H-2 I-A^d class II MHC molecule (mouse)
# Test: radioligand binding
substance,measurement,value
OVA323–339 peptide (WT),IC50,2 nM
